Data set [1] deals with Taxol-stabilized microtubules (unlabeled, Alexa 647-labelled and biotinylated tubulin 50:2:1.5) (not stated (Pork or Bovine brains)) (UniProt P02550). As to the kind of experiment: single-molecule TIRF motility assay on microtubules.
Data set [2] has as its target Drosophila melanogaster KLP61F BASS-XL (extended Bipolar assembly domain minifilament) (Drosophila melanogaster) (UniProt P46863). As to the kind of experiment: crystal structure.
Data set [3] has as its target microtubules of porcine tubulin (GMPCPP or Paclitaxel stabilised, biotin and Alexa-Fluor-633 labelled) (porcine) (UniProt P02550). The data set is described as follows: single-molecule TIRF motility assay on microtubules.
Data set [4] has the same target. The description is as above. This is another data set of the same source.
Data set [5] concerns the molecule itself. The description is as above.

Like-named read-outs stand apart in the source and are kept apart here.

Taxol-stabilized microtubules (unlabeled, Alexa 647-labelled and biotinylated tubulin 50:2:1.5) (not stated (Pork or Bovine brains)), sequence (P02550 whole entry, looked up, the tested form may be a part): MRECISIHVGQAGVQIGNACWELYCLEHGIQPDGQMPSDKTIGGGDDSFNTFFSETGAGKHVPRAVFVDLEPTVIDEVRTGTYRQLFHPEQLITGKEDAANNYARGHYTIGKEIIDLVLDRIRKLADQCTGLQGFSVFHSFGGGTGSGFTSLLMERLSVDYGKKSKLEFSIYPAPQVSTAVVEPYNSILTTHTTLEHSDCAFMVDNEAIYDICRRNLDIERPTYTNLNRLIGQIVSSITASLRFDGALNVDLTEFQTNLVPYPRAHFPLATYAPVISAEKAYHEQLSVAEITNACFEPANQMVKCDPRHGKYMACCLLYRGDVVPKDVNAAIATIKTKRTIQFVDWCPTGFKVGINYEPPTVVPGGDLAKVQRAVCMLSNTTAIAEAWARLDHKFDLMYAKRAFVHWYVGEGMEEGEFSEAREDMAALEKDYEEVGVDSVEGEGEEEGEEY
microtubules of porcine tubulin (GMPCPP or Paclitaxel stabilised, biotin and Alexa-Fluor-633 labelled) (porcine), sequence (P02550 whole entry, looked up): as the sequence (P02550 whole entry, looked up, the tested form may be a part) above

As for “human Eg5 kinesin-5 mini-tetramer without tail (hMBX), TMR labelled (from UniProt P52732 1-374; P46863 597-799)”, in data set [1], the dwell time at MT plus ends, longer lifetime population was found to be 140 s and the dwell time at MT plus ends, shorter lifetime population was 14.6 s.
For “Drosophila melanogaster KLP61F BASS-XL (extended Bipolar assembly domain minifilament) (from UniProt P46863 620-804) (domain or fragment)”, the stoichiometry N in data set [2] was 4.
“Drosophila KLP61F kinesin-5 mini-tetramer without tail (kMBX), neon green tagged (from UniProt P46863 1-369; P46863 597-833)”: the dwell time at MT plus ends in data set [3] came out at 78 s; in data set [4], 25 s.
In the case of “human Eg5 kinesin-5 mini-tetramer with tail (hMBXt), TMR labelled (from UniProt P52732 1-374; P46863 597-799; P52732 913-1056)”, in data set [1], the dwell time at MT plus ends, longer lifetime population turned out to be 484 s and the dwell time at MT plus ends, shorter lifetime population stood at 16.4 s.

B1: human Eg5 kinesin-5 mini-tetramer with tail (hMBXt), TMR labelled (other, Homo sapiens | Drosophila melanogaster, UniProt P52732 1-374, looked up)
chain: MASQPNSSAKKKEEKGKNIQVVVRVRPFNLAERKASAHSIVESDPVRKEVSVRTGGLADKSSRKTYTFDMVFGASTKQIDVYRSVVAPILDEVIMGYNATIFAYGQTGTGKTFTMEGERSPNEEYTWEEDPLAGIIPRTLHQIFEKLTDNGTEFSVKVSLLEIYNEELFDLLNPSSDVSERLQMFDDPRNKRGVIIKGLEEITVHNKDEVYQILEKGAAKRTTAATLMNAYSSRSHSVFSVTIHMKETTIDGEELVKIGKLNLVDLAGSENIGRSGAVDKRAREAGNINQSLLTLGRVITALVERTPHVPYRESKLTRILQDSLGGRTRTSIIATISPASLNLEETLSTLEYAHRAKCILNKPEVNQKLTKKALAQSLQDQTNLHNKLIGEVMKISDQHSQAFVAKLMEQMQQQQLLMSKEIQTNLQVIEENNQRHKAMLDSMQEKFATIIDSSLQSVEEHAKQMHKKLEQLGAMSLPDAEELQNLQEELANERALAQQEDALLESMMMQMEQIKNLRSKNSISMSVHLNKMEESRLTRNHRIDDIKSGIQDYQKLGIEASQSAQAELTSQMEAGMLLEQDLKLDIPTGTTPQRKSYLYPSTLVRTEPREHLLDQLKRKQPELLMMLNSSENNKEETIPDVDVEEAVLGQYTEEPLSQEPSVDAGVDSSSIGGVPFFQHKKSHGKDKENRGINTLERSKVEETTEHLVTKSRLPLRAQINL
modifications: Tetra-methyl Rhodamine (TMR) on the single reactive cysteine in the neck linker (N358C)
Regarding B1, the binding result in data set [5] is given as “binds”.

As usually defined, the stoichiometry N is the number of molecules, sites or subunits per partner or assembly.

(Values after article doi:10.1101/2021.10.12.463902 (bioRxiv, 2021).)
